Results: PMC6894071

Tests used:
[1] = target: Feline CAT1/SLC7A1, endogenous in CC81-GREMG cells (feline (endogenous in CC81-GREMG)); test: flow cytometry on cells
[2] = target: EGFP-tagged bovine cationic amino acid transporter 1 (CAT1)/solute carrier family 7 member 1 (SLC7A1) (bovine) (UniProt F1N5P6); test: flow cytometry on cells

**Q.** “Bovine leukemia virus envelope glycoprotein (Env) on BLV particles (from UniProt P03380 34-301; P03380 302-515) (complex)” was tested. Which percent of cells bound with BLV particles (with control serum 1:10) [1] did it give?
**A.** Its percent of cells bound with BLV particles (with control serum 1:10) is 57%.

**Q.** And the percent of cells bound with BLV particles (with control serum 1:50) [1]?
**A.** The percent of cells bound with BLV particles (with control serum 1:50) was 49%.

**Q.** And the percent APC-EGFP double-positive cells at 1 h [2]?
**A.** The percent APC-EGFP double-positive cells at 1 h was 18.7%.

**Q.** And the percent APC-EGFP double-positive cells at 2 h [2]?
**A.** Its percent APC-EGFP double-positive cells at 2 h is 23.7%.
